Assay: soluble on expression in E. coli; label from the status in PepcDB or PDB records

Sequence	soluble on expression in E. coli
MITAIVFDVDDTIYDQQAPYRIAMEKCFPDFDMSVMNQAYIRFRHYSDVGFPRVMAGEWTTEYFRFWRCKETLLEFGYREIDEAAGVHFQEVYEHELENITMLDEMRMTLDFLKSKNVPMGIITNGPTEHQLKKVRKLGLYDYIDAKRVIVSQATGFQKPEKEIFNLAAEQFDMNPQTTLYVGDSYDNDIMGAFNGGWHSMWFNHRGRQLKPGTKPVYDVAIDNFEQLFGAVKVLFDLPDNKFIFDVNDKKNPILQMGINNGLMMAAERLLESNMSIDKVVILLRLTKQQEKVLRLKYAR	not soluble
MSGKEPLNPNPVIASGRKCRLKDSSDGIFRKGRDALEKTAFQAGILFARQRGGIGRAGKRTGGGSFMPSESPPLRLFAKKVGKGTYNPVQSSINI	not soluble
MNLNFSLLDEPIPLRGGTILVLEDVCVFSKIVQYCYQYEEDSELKFFDHKMKTIKESEIMLVTDILGFDVNSSTILKLIHADLESQFNEKPEVKSMIDKLVATITELIVFECLENELDLEYDEITILELIKSLGVKVETQSDTIFEKCLEILQIFKYLTKKKLLIFVNSGAFLTKDEVASLQEYISLTNLTVLFLEPRELYDFPQYILDEDYFLITKNMV	not soluble
MGSRCVAAANCPFGKLPGQSCVRKSDPSLAFNIPSNQDNCPMGQVCITAGESQVGHCCPVICPLNTTTDTRYSCDPDAAPALKCPSDSHYCYFLSGNFNKIQNFICNANSDGSFSQAACCRRPCNAMAPNALYVDYHCMPRGQLNSACTSNAQCGGGEGMECMKGQCQCQQNFHPAVDVLTNPLKNPSQSCSRDCESENLSKDTSCMKAVPLNSLCFIQKQCPQNSGCYRGRCMCRCGFAAKNGKCVEIPAPPTTTSAPAPAIIPGVPINPGNDLFKLFGQFLGAGNGGGGLNFG	not soluble
GSEQKKRRLEEGTRANSVAESSPPFPLRSKTSVGSTNSQITETKNKQGVYPITESNLRILEGEDRSEKAKELLKKYVSNVFENEKTLYIYCKYVMLHYGKDLVNPNEVDSLEFQIINGGITNILIKVKDMSKQAKYLIRLYGPKTDEIINREREKKISCILYNKNIAKKIYVFFTNGRIEEFMDGYALSREDIKNPKFQKLIAKNLKLLHDIKLNENLYKELQVTQKVPGTRPSFLWNTIWKYFHLLNEERKKICSFDAKANILKLIDFDVLRDSIVEVESLCKRENSPIVLCHCDLLSSNIINTVGGGEAGELGEAGETGEGGETGEGGETGEGGETGEGGEGDSISFIDFEYSCPMERAYDIANHFNEYAGFNCDWDLTPSKEEEYHFIMHYLGTDDEELINQLIREIQPFYICSHINWGLWSLLQGMHSSIDFDFINYGMTRLTASCLPIFRSKV	soluble
MVLLIIRGDSYEKIKNAIADVHRHAKLTILGKPRIMVPEAADEILEHIVGNIKKPCKKACLVRIEENAPRAIDRIRKIHPPAHIVIVSERHEPYFYLLEDLPKMPLLKGYYKSKSLDSDEEIEESH	not soluble
MRILGEKVRQFRKRKGMSQKELADGICTQATISLIEKKSKIPSMKIMMKICNRLGIRLSEVIIENDDQLYRTFKKIDTLIRHTQLEEAQDVFQHIRPKQLRSNTDKKQYYYYEGYLQLVLNDNADEAIFNFGMLLNQFVKSSHDMFAILATLGTGLAYERKQAYDKAEIFVKQAVATLHTMDAQAMPMGDDDYLQNEILIYASAAQLYAKINFPEEALELIDLALKKAQESQSLYLLDRLYAQKAANEVVLNNVQSAHDHYYVAYALSLVTHNSSLTEKITKEMAEYHIAPLQVANDA	not soluble
MNTRQLLSVGIDIGTTTTQVIFSRLELVNRAAVSQVPRYEFIKRDISWQSPVFFTPVDKQGGLKEVELKALILAQYQAAGIAPESVDSGAIIITGESAKTRNARPAVMALSQSLGDFVVASAGPHLESVIAGHGAGAQSLSEQRMCRVLNIDIGGGTSNYALFDAGKVSGTACLNVGGRLLETDAQGRVVYAHQPGQMIIDEVFGSGTDARALAAAQLGQVARRMADLIVEVITGALSPLAQSLMQTGLLPADITPEVITLSGGVGECYRNQPADPFCFSDIGPLLATALHEHPRLREMNVQFPAQTVRATVIGAGAHTLSLSGSTIWLEDVQLPLRNLPVAIPQDDADLVNAWRQALLQLDLDPQTDAYVLALPATLPVRYAALLTVINALTAFVARYPNPHPLLVVAEQDFGKALGMLLRPQLPQLPLAVIDEVVVRAGDYIDIGTPLFGGSVVPVTVKSLAFPS	not soluble
MAHHHHHHMSGRLRLYKEKLEGYNRFYSIVKTIKMVTMAKFRQAQVRIKTRDYTLRYTEKAFSKPGQLVGDSPQAKAIYIPVMTNRGSCGALNSNVVKVIDSVASSRAYLMPLGKRGIESLSKLYPSSFRMGIVNDMHEPMHFAYATYVWENAQQLCPEADRVHVIFHRCVSAGSQKQCYYNIPSYEKWREDLADASSTENQKSRYLFANTLLNEDEQMIRDFYDFHATLAILNAVCENELSEQAARLVAVEGQLSNISTLQQKTSSLYNKTRQSSITSSLIEIISAMTSLEGNAAKGVQRTNFWEGARMK	not soluble
ADILLLDNIDSFTWNLADQLRTNGHNVVIYRNHIPAQTLIDRLATMKNPVLMLSPGPGVPSEAGCMPELLTRLRGKLPIIGICLGHQAIVEAYGGYVGQAGEILHGKATSIEHDGQAMFAGLANPLPVARYHSLVGSNVPAGLTINAHFNGMVMAVRHDADRVCGFQFHPESILTTQGARLLEQTLAWAQQK	soluble
MAHHHHHHMATPRHGDLDSICSLSSSENSPRGGGQSSERLIDLLTRPCAQGGYGGRLNYTGFATLAASLGWNQEDMDDCWYDIVMGEPCAEAVDMKRVAECVCSYCLASPLPILEHSTLAKSSAAKPATPPRLPHASRERSTTVLLSPPTPRFRRAESVASTLPKTGDKQRVTTATASPSQACAHRRCTAPNVFPRYAVETVSSEQKKASLSPGRGSHRPHNRRTTAKSSRQTSPAPTLSQTSGPSGCSVFSRLYEKGMEQHRKRIAVKPVDSDAAECTFQPHITPYTPKAADTASVHYNKPTESYFAKLTAPGTPPDAICASPETPRVTYHPAPGPSSDVPAGYVEGVARLRSYIASRYAHATFASSLRGSSSADVAHLVEAPILRLPVTVRGVTDAVDVRLASPDTRASLGRECSVGPRRPCFRQRCEARHVSFPSPSRVRFQS	soluble
SDEFDALRIKWATLLTGGPALDPADSDIAARTDKLAQDANDYWEDMDLSSSRTYIWYALRGNGTSDNVNAVYERLRTMALAATTVGSSLYGNADLKEDILDALDWLYVNSYNSTRSRSAYNWWHWQLGIPMSLNDIAVLLYDDISAARMATYMDTIDYFTPSIGLTGANRAWQAIVVGVRAVIVKDAVKLAAARNGLSGTGIFPYATGGDGFYADGSFVQHTTFAYTGGYGSSVLETTANLMYLLSGSTWSVSDPNQSNVWQWIYEAYRPLLYKGAMMDMVRGREISRSYAQDHAVGHGIVASIVRLAQFAPAPHAAAFKQIAKRVIQEDTFSSFYGDVSTDTIRLAKAIVDDPSIAPAAAPNLYKQYAAMDRAVLQRPGFALGLALYSTRISSYESINSENGRGWYTGAGATYLYNQDLAQYSEDYWPTVDAYRIPGTTVASGTPIASGTGTSSWTGGVSLAGQYGASGMDLSYGAYNLSARKSWFMFDDEIVALGSGISSTAGIPIETVVDNRKLNGAGDNAWTANGAALSTGLGVAQTLTGVNWVHLAGNTADGSDIGYYFPGGATLQTKREARTGTWKQINNRPATPSTAVTRNYETMWIDHGTNPSGASYGYVLLPNKTSAQVGAYAADPAIEIVVNTSGVQSVKEKTLGLVGANFWTDTTQTADLITSNKKASVMTREIADERLEASVSDPTQANNGTIAIELARSAEGYSADPGITVTQLAPTIKFTVNVNGAKGKSFHASFQLG	soluble
MIQEPARVQAAPTFEATIREDNAKYQETAAGGTYSSPNCSCSQRRTRPTEPTKDSPTSTITTIPIVIDSKPNPRILLIRVPTSNRGSNSNNNSNSTRSGTEHRAPRTRIIRIPFLPGSVPTRPPSNQAAPATSSLVNPIGSARRCRISTYPTTGTLTSRSQPETVAGLPTTAMVNQTVPVLSSAPQTQTLAAMAGIQLTGADEPPSRRDVSGAMPTATVEEIDVPVFIDEYLQDIEATSSTCNSENGKEIFTETDILDFDINMFAEEDLIELEGKKTDPFSPAMDGMNNDNLDDDFLQLNDLLNEEETFDMSSMSGVGIDINQEQELDFINIFHNSQPTAMLTSSEDPYLATYSQATSTSSTTKFITEEPLLADMTSFDISYTSSQELGFGLVEDVSGSFASSCSDVAAAIPAPIQHPIITNIKRSAPAPVESQPTKRSRLMLQIKTELAPAFSPTTPEIINQLLNDDRFEAPTTSTSTSTSNTSISSSTHADIVEDLRSAEEETTTDFSAPNTPHSNYSASSSCAAPTCQTGYGGFLTAPTSPAYSTASTSVFSPSPASGISGKRKRGRPAKDHADGPDPVLMSSMKSEEERKAYQDRLKNNEASRVSRRKTKVREEEEKRAEDTLLAENLRLRARADEVASRERKFKKYLMERQRQKSTYVKQEQD	not soluble
MDLWLLANDESCLRHQAFWHSWQGPLVERQQSNNITLTDVLEGVHAYLQGHLDDFEIQEAFVTKELPLKLAQLRERWERYVVLNAELAARGRGGFERNRRDD	soluble
IGAVNYSIGANIATNKNKITNLGGSDNIIQTSSYIVKYILKKGESIGSFYGFKTDGLYTQADIDAGHYYTLSGVVPNAGDIKFVPQRDIEYKQEITDEDRTILGKDVPDFTYGVNLSLQYKGFEFSMFGQGISGTKVAFDVYGVHPFYHGQDSPRKYHLKRWTEENPNPHAAYPRIYSASSVHTTYNRNFSDYHLFDSDYFRFKTLSLGYTVPSATVKNWGLQSLKVYVTGENLFTVRADKKMEDFDPETAGGVIYTLGTKSVAFGVNISF	not soluble
SYPYILISGHKHPRLSMHRGAKKRKGEYFGPYPDSGAVRETLHLLQKIFPVRQCEDTVYSNRTRPCLMYQIGRCAGPCVSSIISDEEYAELVGFVRLFLQGKDQQVLKQLIEKMEVASQQLRFEDAAKFRDQIQAIRRVQEQQYVSEDSMDDMDVLGFAQENGIACIHILMIRQGKVLGSRSHFPKIPQNTSQQEVFDSFLTQYYLSHNEARTIPSRIILNQELADDLEPIQKALSEVAGRKVHFHTSPTGARGRYLKLSNTNALTAITTKINHKMTINQRFKALRETLGMESIMRMECFDISHTMGESTIASCVVFNNEGPVKQEYRRYNITGITGGDDYAAMGQALERRYSKQLDVEKIPDIIFIDGGKGQLNRAHEIIAQYWGDWPKRPIMIGIAKGVTRKPGLETLITVDGEEFNLPSDAPALHLIQHIRDESHNHAIAGHRAKRGKTRR	not soluble
MPLTPADVHNVAFSKPPIGKRGYNEDEVDQFLDLVEDTLAEIQEENDDLRQQIEELQSSPRAEGSKPAAAPAAVSSLDETKLRKEIEAKVAAEYRAKLADAQEATERAQAELKMAREEADSAKAAAKKAEEAARAAASAATKAQPVAAVAPVGTDGGSATADTHLQAAKVLSMAQEMADRLTAEADSNSKSMLSEARAAAEKQVSDAEAKAKTTLADARQKAEKQLADADARSKALVSDAEKKSAQTLSDANTRAEAQVRQAEEKANALQADAERKHTEIMATVKQQQNALESRISELRTFEREYRTRLKTLLQTQLDELESRGTSAPEDKNV	not soluble
MNKFLGMYNTNTSNGGFVMSEKIYLKIDQQRYVKKPRVTIGDVMTVYCSDKDMIEKIGHITLAEFTLGKYDRKVFDALDVVGIIQKEYPDADIECLGECDFVVEYKKPEKEGTVH	not soluble
MSLVGNMNREALFKTLTTGYLHFWSLSRKKLWLKGETSGNFQIIEEFKVDCDADAVLFKVTSLGPICHTGNYTCFYRSYDELVNSKSEGHHHHHH	not soluble

Source: the DeepSol protein solubility set
